# Data published in paper PMC8038991, “R-catcher, a potent molecular tool to unveil the arginylome” (Cellular and Molecular Life Sciences: CMLS, 2021).
# B1: R-CRT: Nt-arginylated CRT (protein)
# chain: REPAVYFKEQFLDGDGWTSRWIESKHKSDFGKFVLSSGKFYGDEEKDKGLQTSQDARFYALSASFEPFSNKGQTLVVQFTVKHEQNIDCGGGYVKLFPNSLDQTDMHGDSEYNIMFGPDICGPGTKKVHVIFNYKGKNVLINKDIRCKDDEFTHLYTLIVRPDNTYEVKIDNSQVESGSLEDDWDFLPPKKIKDPDASKPEDWDERAKIDDPTDSKPEDWDKPEHIPDPDAKKPEDWDEEMDGEWEPPVIQNPEYKGEWKPRQIDNPDYKGTWIHPEIDNPEYSPDPSIYAYDNFGVLGLDLWQVKSGTIFDNFLITNDEAYAEEFGNETWGVTKAAEKQMKDKQDEEQRLKEEEEDKKRKEEEEAEDKEDDEDKDEDEEDEEDKEEDEEEDVPGQAKDEL
# B2: CRT: ER chaperone calreticulin, arginylated (protein)
# chain: B1 chain
# B3: RGS4: ATE1 model substrate RGS4 (2nd oxidized Cys) (protein)
# chain: RCKGLAGLPASCLRSAKDMKHRLGFLLQKSDSCEHNSSHNKKDKVVICQRVSQEEVKKWAESLENLISHECGLAAFKAFLKSEYSEENIDFWISCEEYKKIKSPSKLSPKAKKIYNEFISVQATKEVNLDSCTREETSRNMLEPTITCFDEAQKKIFNLMEKDSYRRFLKSRFYLDLVNPSSCGAEKQKGAKSSADCASLVPQCA
# modifications: oxidized Cys as 2nd residue; left off: myc, end not stated, kept | His, end not stated, state not stated
# Tests used:
# GST-ZZ122-175^N132D = GST-ZZ122-175^N132D pulldown from HeLa lysates (MG132 plus TG); type: binding, human; settings: HeLa lysate, immunoblot
# Source text: Using these lysates and purified GST tagged ZZ122-175^N132D (Supplementary Fig. 4A) immobilized on glutathione resin, we performed pulldown assays. […] In addition to pulling down R-BiP and R-CRT, GST-ZZ122-175^N132D was able to capture polyubiquitinated proteins, which were also disrupted by the D129A mutation and RA dipeptide competition (Supplementary Fig. 4B). This was expected because arginylated proteins are known to be ubiquitinated by E3 ligases containing a UBR box leading to their proteasomal degradation.
# Fig. 4 ZZ122-175 ^N132D is capable of capturing known arginylated proteins in cells. a Western blot analysis to visualize arginylated BiP and CRT. […] N-terminally arginylated BiP and CRT were detected by immunoblotting using anti R-BiP and R-CRT antibodies. b GST pulldown assays to test the ability of wild type (WT) and N132D GST-ZZ in capturing cellular R-BiP and R-CRT. […] Pulled down R-BiP and R-CRT were detected using anti R-BiP and R-CRT antibodies. c Schematic drawing illustrating R-catcher. […] R-catcher bound arginylated proteins were detected by immunoblotting using anti-Myc or Flag antibody. e R-catcher pulldown assay to capture R-BiP and R-CRT induced in HeLa cells stimulated with MG132 plus TG in the absence or presence of 20 mM dipeptides TEXT PRINTED IN THE PICTURE: (C) R-catcher: ~ 9 kDa
# R-catcher = experiment: Small-scale R-catcher pulldown of known arginylated proteins; type: binding, human
# Experimental: For small-scale R-catcher pull-down assays, 300 µg of purified R-catcher was conjugated with 120 µl of Strep-Tactin sepharose resin by incubating overnight at 4 °C. To test R-catcher’s ability to capture known arginylated proteins, such as R-BiP, R-PDI, R-nsP4 and R-RGS4, plasmids encoding Ub-X-(BiP, PDI and nsP4) or MX-RGS4 (X = Arg or Val) were transiently transfected into HEK293 cells. After 24 h, cells were treated with 10 µM MG132 and 100 nM thapsigargin for another 24 h. Cells were harvested and lysed in hypotonic buffer and 300 µg total protein was incubate with 25 µl R-catcher-sepharose resin in binding buffer (20 mM HEPES pH 7.9, 0.05% Tween 20, 10% glycerol, 0.2 M KCl, protease inhibitor and phosphatase inhibitor) for 3 h with gentle rotation at 4 °C. After three washes with binding buffer, bound proteins were dissociated with 2 × SDS sample buffer and boiling at 100 °C and subjected to immunoblotting using anti-myc or flag antibodies.
# [1] = tested on: HeLa cell extracts stimulated with MG132 plus TG; experiment: Large-scale R-catcher pulldown coupled to silver staining and LC-MS/MS; design: species or system human; settings: LC-MS/MS working list
# Experimental: For large-scale R-catcher pulldown assays, HeLa cells were treated with 5 µM MG132 and 100 nM thapsigargin for 24 h. Cells were lysed in hypotonic buffer and 10 mg total was incubated with 750 µl R-catcher-sepharose beads for 3 h at 4 °C after pre-clearing with D129A mutant R-catcher-sepharose beads for 3 h at 4 °C. After three washes with binding buffer, bound proteins were eluted with binding buffer containing 20 mM D-biotin. To remove R-catcher, the eluent was dialyzed using 20 kDa cut-off dialysis membrane in binding buffer containing 3.5 M MgCl2 overnight followed by another overnight dialysis in distilled-deionized water. The dialyzed eluent was lyophilized overnight and dried powder was dissolved in 100 µl LC/MS solubilizer for silver staining and mass spectrometry analysis.
# Protein samples solubilized in Invitrosol LC/MS solubilizer (Invitrogen) as following by manufacturer protocol. For removal of incompatible buffer components, protein samples filtrate with 10 K MW ultrafilter for complete digestion. […]
# Peptides were analyzed using a LC–MS/MS system consisting of an Easy nLC 1000 (Thermo Fisher scientific) and an Orbitrap Fusion Lumos mass spectrometer (Thermo Fisher Scientific) equipped with a nano-electrospray source (EASY-Spray Sources, Thermo Fisher Scientific). […]
# MS/MS spectra were analyzed using the following software analysis protocols with the Uniprot human DB (2019). […]
molecule,measurement,setting,value
B1,pulldown by GST-ZZ122-175^N132D,GST-ZZ122-175^N132D,efficiently pull down
B2,"pulldown by R-catcher, endogenous","R-catcher; HeLa, MG132 plus TG, Fig. 4e",could pulldown
same,presence in R-catcher working list,[1],among the known arginylated proteins
B3,"pulldown by R-catcher, overexpressed substrates","R-catcher; HEK293 cells, R-catcher on tactin beads, immunoblot, Fig. 4d",could pulldown
